In US20170226204A1 (PERONGEN BIOTHERAPEUTICS SUZHOU, published 2017):

B1: anti-human CD7 nanobody clone 6 (VHH)
VHH: DVQLQESGGGSVQAGGSLRLSCAASGYTYSTYCMGWFRQAPGKEREGVATIDSDGSTSYADSVKGRFTISRDNAKNTLNLQMSSLKPEDTAMYYCAARFGPMGCVDLSTLSFGHWGQGTQVTVSI
B2: anti-human CD7 nanobody clone 1 (VHH)
VHH: DVQLQESGGGSVQAGGSLRLSCPASGYTFSHYCMGWNRQAPGKEREEVATIDTDDTPTYADSVMGRFTISRDNANNALYLQMNDLKPEDTSMYYCAIWMKLRGSCHDRRLEVRGQGTQVTVSI
B3: anti-human CD7 nanobody clone 3 (VHH)
VHH: DVQLQESGGGSVQAGGSLRLSCPASGYTFSHYCMGWLRQAPGKEREEVATIDTDSTPTYADSVMGRFTISRDNANNALYLQMNDLKPEDTSMYYCATWMGLRGSCHDRRLEVRGQGTQVTVSI
B4: anti-human CD7 nanobody clone 4 (VHH)
VHH: DVQLQESGGGSVQAGGSLRLSCAASGYTTSRLCMAWFRQFPGKEREGVANVRLGGYKPAYADSVKGRFTLSEDSAKNTVYLEMNSLQPEDTAMYYCAADPGGGGSCPVALVRGDFDYWGQGTQVTVSI

Biological target: T1, human CD7 molecule (human, UniProt P09564 26-240)
T1 construct: whole, on cells; also called CD7 protein
T1 sequence (looked up): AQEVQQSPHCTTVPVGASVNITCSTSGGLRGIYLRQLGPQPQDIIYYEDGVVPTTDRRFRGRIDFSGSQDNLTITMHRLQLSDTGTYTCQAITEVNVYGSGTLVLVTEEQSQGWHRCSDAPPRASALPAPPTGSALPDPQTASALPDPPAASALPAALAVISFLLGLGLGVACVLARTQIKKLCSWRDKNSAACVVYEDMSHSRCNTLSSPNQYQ
Assay: phage whole-cell ELISA, 293T-CD7+ against 293T-CD7- cells; positive when OD is 2.5 times that of the control well

Binding result, binds:
B1, B2, B3, B4
